Data on 125 sequences can be found in the supplement of paper PMC9112550, “Optimization of the antimicrobial peptide Bac7 by deep mutational scanning” (BMC Biology, 2022).
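Further: peptides expressed intracellularly from a pBAD plasmid library in pooled LB shake-flask culture, induced with 0.3% L-arabinose, DNA abundance read by NGS, three biological replicates, DESeq2 with apeglm shrinkage.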

This data set relates to Escherichia coli TOP10. Briefly: shrunken log2 fold change of peptide-encoding DNA abundance (4.5 h post-induction vs induction); higher = less antimicrobial activity (less host growth inhibition). To be noted: time post-induction: 4.5 h; library: site-saturation at positions 5, 18, 19, 20.
For RRIRVRPPRLPRPRPRPYSNPRP, the “shrunken log2 fold change” value was -0.676.
The result for RRIRWRPPRLPRPRPRPLMGPRP reads -0.276; that for RRIRDRPPRLPRPRPRPFYIPRP, -0.796.
The result for RRIRSRPPRLPRPRPRPISVPRP reads -0.151; that for RRIRIRPPRLPRPRPRPFWDPRP, -0.0885; that for RRIRFRPPRLPRPRPRPRVHPRP, -0.0984.
As to RRIRIRPPRLPRPRPRPILTPRP, the “shrunken log2 fold change” value was -0.854.
Take RRIRWRPPRLPRPRPRPAPPPRP: the “shrunken log2 fold change” value came out at 0.579.
As for RRIRDRPPRLPRPRPRPVYGPRP, the figure is -0.322; as for RRIRQRPPRLPRPRPRPHVKPRP, -0.274.
As for RRIRPRPPRLPRPRPRPCGPPRP, the figure is 0.189.
Consider RRIRTRPPRLPRPRPRPLRYPRP, for which the “shrunken log2 fold change” value was -0.255.
Consider RRIRRRPPRLPRPRPRPTAPPRP, for which the “shrunken log2 fold change” value came out at 0.583.
As for RRIRMRPPRLPRPRPRPVHMPRP, the figure is -0.318; as for RRIRDRPPRLPRPRPRPQCDPRP, -0.0921.
For the sequence RRIRYRPPRLPRPRPRPNTPPRP, the “shrunken log2 fold change” value is -0.179.
Turning to RRIRWRPPRLPRPRPRPNCLPRP, the “shrunken log2 fold change” value was found to be 0.257.
The result for RRIRIRPPRLPRPRPRPLQCPRP reads 0.0339.
As for RRIRWRPPRLPRPRPRPLHLPRP, the figure is -0.234; as for RRIRDRPPRLPRPRPRPLIAPRP, 0.468; as for RRIRTRPPRLPRPRPRPWVIPRP, 0.0147.
Take RRIRRRPPRLPRPRPRPFEGPRP: the “shrunken log2 fold change” value came to 0.0216.
As for RRIRRRPPRLPRPRPRPQCQPRP, the figure is 0.0393.
The result for RRIRRRPPRLPRPRPRPAHTPRP reads 0.448; that for RRIRYRPPRLPRPRPRPWGEPRP, -0.102.
As for RRIRNRPPRLPRPRPRPATIPRP, the figure is -0.44; as for RRIRRRPPRLPRPRPRPFRMPRP, -0.0671; as for RRIRGRPPRLPRPRPRPPGGPRP, 1.18.
As for RRIRARPPRLPRPRPRPGKWPRP, the “shrunken log2 fold change” value turned out to be 0.19.
The result for RRIRPRPPRLPRPRPRPSTDPRP reads -0.207; that for RRIRHRPPRLPRPRPRPRPEPRP, -0.165; that for RRIRHRPPRLPRPRPRPSRTPRP, 0.138.
As for RRIRARPPRLPRPRPRPAGQPRP, the “shrunken log2 fold change” value came to 0.143.
Take RRIRWRPPRLPRPRPRPEPEPRP: the “shrunken log2 fold change” value turned out to be 0.838.
Regarding RRIRARPPRLPRPRPRPNGLPRP, the “shrunken log2 fold change” value is -0.0319.
As for RRIRQRPPRLPRPRPRPMGAPRP, the figure is 0.132; as for RRIRLRPPRLPRPRPRPTNMPRP, -0.537.
As for RRIRRRPPRLPRPRPRPLSIPRP, the figure is -0.288.
The result for RRIRERPPRLPRPRPRPAAKPRP reads 0.0307.
Turning to RRIRERPPRLPRPRPRPWGNPRP, the “shrunken log2 fold change” value was -0.377.
On to RRIRHRPPRLPRPRPRPHTWPRP, for which the “shrunken log2 fold change” value is -0.301.
As for RRIRRRPPRLPRPRPRPKVHPRP, the figure is 0.153; as for RRIRTRPPRLPRPRPRPDQFPRP, -0.00188; as for RRIRCRPPRLPRPRPRPNPDPRP, -0.306.
On to RRIRHRPPRLPRPRPRPPVQPRP, for which the “shrunken log2 fold change” value is -0.0798.
RRIRPRPPRLPRPRPRPKQFPRP: the “shrunken log2 fold change” value is -0.313.
As for RRIRERPPRLPRPRPRPGNHPRP, the figure is -0.141; as for RRIRMRPPRLPRPRPRPLLMPRP, 0.205.
The result for RRIRPRPPRLPRPRPRPWLMPRP reads -0.118.
The result for RRIRPRPPRLPRPRPRPWEVPRP reads -0.0677; that for RRIRERPPRLPRPRPRPYYTPRP, -0.116.
On to RRIRTRPPRLPRPRPRPEIFPRP, for which the “shrunken log2 fold change” value is -0.303.
The result for RRIRWRPPRLPRPRPRPIAYPRP reads 0.000575; that for RRIRPRPPRLPRPRPRPPVKPRP, 0.172.
The result for RRIRNRPPRLPRPRPRPEAAPRP reads 0.902; that for RRIRIRPPRLPRPRPRPCDGPRP, -0.00133; that for RRIRYRPPRLPRPRPRPLEQPRP, -0.121.
As for RRIRARPPRLPRPRPRPVQVPRP, the figure is 0.123.
As to RRIRPRPPRLPRPRPRPQPDPRP, the “shrunken log2 fold change” value is -0.0815.
For the sequence RRIRTRPPRLPRPRPRPLEHPRP, the “shrunken log2 fold change” value turned out to be 0.104.
As for RRIRCRPPRLPRPRPRPYVVPRP, the figure is 0.0333.
The result for RRIRMRPPRLPRPRPRPAQFPRP reads -0.107; that for RRIRFRPPRLPRPRPRPMSLPRP, -0.142; that for RRIRMRPPRLPRPRPRPFCKPRP, -0.224.
RRIRARPPRLPRPRPRPSVMPRP: the “shrunken log2 fold change” value came out at 0.00738.
The result for RRIRDRPPRLPRPRPRPCVDPRP reads 0.0635; that for RRIRKRPPRLPRPRPRPEFFPRP, 0.7.
The result for RRIRARPPRLPRPRPRPYIVPRP reads -0.882.
For RRIRLRPPRLPRPRPRPIPGPRP, the “shrunken log2 fold change” value is 0.00419.
As for RRIRCRPPRLPRPRPRPWPNPRP, the figure is -0.279; as for RRIRQRPPRLPRPRPRPEYVPRP, -0.0886; as for RRIRHRPPRLPRPRPRPLRGPRP, 1.02.
The result for RRIRCRPPRLPRPRPRPEWTPRP reads 0.154.
Turning to RRIRMRPPRLPRPRPRPDQIPRP, the “shrunken log2 fold change” value was found to be 0.0408.
The result for RRIRQRPPRLPRPRPRPLRSPRP reads 0.208.
As for RRIRVRPPRLPRPRPRPAQIPRP, the figure is -0.246.
On to RRIRCRPPRLPRPRPRPPWAPRP, for which the “shrunken log2 fold change” value was determined as 0.317.
As for RRIRRRPPRLPRPRPRPYHHPRP, the “shrunken log2 fold change” value was -0.471.
On to RRIRPRPPRLPRPRPRPVHFPRP, for which the “shrunken log2 fold change” value is -0.342.
The result for RRIRWRPPRLPRPRPRPGLHPRP reads 0.237.
For RRIRIRPPRLPRPRPRPNVDPRP, the “shrunken log2 fold change” value is -0.272.
Regarding RRIRHRPPRLPRPRPRPWSAPRP, the “shrunken log2 fold change” value was -0.547.
With RRIRIRPPRLPRPRPRPMHKPRP, the “shrunken log2 fold change” value was -0.431.
Consider RRIRVRPPRLPRPRPRPWFKPRP, for which the “shrunken log2 fold change” value was determined as 0.0333.
Regarding RRIRFRPPRLPRPRPRPCKFPRP, the “shrunken log2 fold change” value is -0.0298.
For RRIRWRPPRLPRPRPRPPYDPRP, the “shrunken log2 fold change” value is -0.0917.
The result for RRIRMRPPRLPRPRPRPNTGPRP reads 0.151; that for RRIRHRPPRLPRPRPRPWRSPRP, -0.0818; that for RRIRYRPPRLPRPRPRPYMIPRP, -0.0298.
As to RRIRVRPPRLPRPRPRPTLMPRP, the “shrunken log2 fold change” value was found to be 0.169.
The result for RRIRVRPPRLPRPRPRPWTLPRP reads 0.113; that for RRIRVRPPRLPRPRPRPSEFPRP, -0.233; that for RRIRQRPPRLPRPRPRPIAPPRP, 4.03.
The result for RRIRDRPPRLPRPRPRPWLKPRP reads -0.00783; that for RRIRNRPPRLPRPRPRPGRSPRP, 0.17; that for RRIRVRPPRLPRPRPRPWQIPRP, 0.00686.
In the case of RRIRIRPPRLPRPRPRPMRLPRP, the “shrunken log2 fold change” value was found to be 0.0554.
As for RRIRLRPPRLPRPRPRPFKYPRP, the “shrunken log2 fold change” value was -0.482.
The result for RRIRIRPPRLPRPRPRPWQDPRP reads -0.0109.
As for RRIRWRPPRLPRPRPRPHIGPRP, the figure is -0.079; as for RRIRERPPRLPRPRPRPIPRPRP, -0.138.
The result for RRIRARPPRLPRPRPRPLYPPRP reads -0.221; that for RRIRQRPPRLPRPRPRPKCIPRP, -0.0337.
For RRIRSRPPRLPRPRPRPIVEPRP, the “shrunken log2 fold change” value is 1.56.
The result for RRIRDRPPRLPRPRPRPFALPRP reads 0.206; that for RRIRRRPPRLPRPRPRPFDYPRP, -0.0528; that for RRIRTRPPRLPRPRPRPWLRPRP, -0.161.
In the case of RRIRNRPPRLPRPRPRPRLFPRP, the “shrunken log2 fold change” value was determined as 0.0322.
As to RRIRRRPPRLPRPRPRPLMSPRP, the “shrunken log2 fold change” value is -0.246.
As for RRIRYRPPRLPRPRPRPPDSPRP, the figure is -0.0664; as for RRIRIRPPRLPRPRPRPICMPRP, -0.407.
Consider RRIRWRPPRLPRPRPRPGRFPRP, for which the “shrunken log2 fold change” value was 0.152.
Take RRIRHRPPRLPRPRPRPKSRPRP: the “shrunken log2 fold change” value is -0.0231.
On to RRIRYRPPRLPRPRPRPCRRPRP, for which the “shrunken log2 fold change” value is -0.0474.
RRIRFRPPRLPRPRPRPPFQPRP: the “shrunken log2 fold change” value turned out to be 0.258.
As for RRIRCRPPRLPRPRPRPNFCPRP, the figure is -0.157; as for RRIRMRPPRLPRPRPRPYWMPRP, -1.18.
Take RRIRERPPRLPRPRPRPIEQPRP: the “shrunken log2 fold change” value is -0.00133.
The result for RRIRGRPPRLPRPRPRPKYVPRP reads 0.0402; that for RRIRQRPPRLPRPRPRPIKYPRP, 0.00234.
As for RRIRMRPPRLPRPRPRPMVYPRP, the “shrunken log2 fold change” value worked out at 0.0294.
On to RRIRYRPPRLPRPRPRPIEMPRP, for which the “shrunken log2 fold change” value was 0.0294.
As for RRIRNRPPRLPRPRPRPILVPRP, the “shrunken log2 fold change” value was -0.0115.
Regarding RRIRIRPPRLPRPRPRPIMVPRP, the “shrunken log2 fold change” value was -0.412.
The result for RRIRMRPPRLPRPRPRPPTLPRP reads 0.256.
